Source: the supplement of paper PMC9170038

Test system: MS2 coat protein
Experiment: apparent KD of MS2 coat protein; designed switch direction (-1 OFF switch, 1 ON switch): -1; higher = weaker reporter binding
Method in brief: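 An oligonucleotide input, 200 uM small-molecule ligand, or no input was present during titration of SNAP-549-labelled MS2 coat protein, which was doubled from 0.7 or 1.5 nM to 3 µM. Designed RNA switches had been transcribed on Illumina chips by stalled E. coli RNA polymerase. Apparent KD per design is the median over clusters of curves fitted to normalised cluster fluorescence.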

[1] = Eterna round: R95, input ligand: microRNA oligo, concentration not stated
[2] = input ligand: microRNA oligo, concentration not stated
[3] = Eterna round: R95, input ligand: FMN 200 uM
[4] = Eterna round: R95, input ligand: none

Row | Sequence | apparent KD of MS2 coat protein (input ligand: FMN 200 uM) [nM] | apparent KD of MS2 coat protein (input ligand: none) [nM] | apparent KD of MS2 coat protein [1] [nM] | other results
1 | GUGCGACAUGAGGAUCACCCAUGUCAGGAUAUAUAGAACGAUAACGAAAUCGUUAUCGGUAGAAGGGACGGUGA [Eternabot (L1) Solution 48] (Eterna round: R97, puzzle: Exclusion 1) | 18.6 | 21.4 |  | 
2 | GUGCGCGGCUAGGAUAUUGUGGGUUUUUGUCUGCGAGAAGGAGCCACAUGAGGAUCACCCAUGUGGUGUUGCUC [salish99_ex6_r4_013] (Eterna round: R97, puzzle: Exclusion 6) | 220 | 63.6 |  | 
3 | GUGGUACAUGAGGAUCACCCAUGUUAGGAUAUCGCGUGAGGUUUUACUUACACACACACGAGAAGGGACGUCUU (puzzle: Exclusion 1) |  |  | 43.2 | 
4 | GUGGUACAUGAGGAUCACCCAUGUUAGGAUAUCGCGUGAGGUUUUACUUCCGCACGCGCGAGAAGGGACGUCUU (puzzle: Exclusion 1) |  |  | 28.9 | 
5 | GUGGUACAUGAGGAUCACCCAUGUUAGGAUAUCGCGUGGUUUUUUGCGGCCGCGCGCGCGAGAAGGGACGUCUU (puzzle: Exclusion 1) |  |  | 29.3 | 
6 | GUGUACAGAGGAUAUAUAUGGGCAUGGAAACAUGCAACUUCACAUGAGGAUCACCCAUGUAGAAGGCUGUACAC [Ex2: 712] (Eterna round: R96, puzzle: Exclusion 2) | 332 | 28.9 |  | apparent KD of MS2 coat protein [2]: 23 nM
7 | GUGUACAGAGGAUAUGCACGAGUAGUUACGAAAGUAACUGCACAUGAGGAUCACCCAUGUAGAAGGCUGUACAC [Dot plot directed v4] (puzzle: Exclusion 2) |  |  | 15.4 | 
8 | GUGUACGGAGGAUAUAUAUGGGCAGGCUGACCUGCAGCUUCACAUGAGGAUCACCCAUGUAGAAGGCUGUACAC [Mat - Exclusion 2 - Mod of Hyphema - D98] (puzzle: Exclusion 2) |  |  | 33.2 | 
9 | GUGUAGAUAGGAUAUGCAUAGAGCUUACGAAAGUAGGCUCUACAUGAGGAUCACCCAUGUAGAAGGGUCUACAC [Dot plot directed A v15] (puzzle: Exclusion 2) |  |  | 25 | 
10 | GUGUAGUCAGGAUAUACAUAGGAAGAGAAUAUAAUAUAAGUACAUGAGGAUCACCCAUGUAGAAGGGACAGUGU [Excluse me!! 8 - Jieux - Exclusion 2] (puzzle: Exclusion 2) |  |  | 29.4 | 
11 | GUGUGCACGCUGCGAUCCUACAUGAGGAUCACCCAUGUGGUCUGGUGGCGUGGGUCACCGGACUUGGCUCGUCUUGA [salish99_S_TOV1_R5_069] (Eterna round: R97, puzzle: Sensor, turn-off variant 1) | 121 | 118 |  | 
12 | GUGUGCAGAGGAUAUACAGAGGAAAAGAAAAGAGAAGGGAGACAUGAGGAUCACCCAUGUAGAAGGCUGAGUGU [Excluse me!! 20 - Jieux - Exclusion 2] (puzzle: Exclusion 2) |  |  | 63.4 | 
13 | GUUAAACAUGAGGAUCACCCAUGUAAGGAUAUGCUGAGGUAGAGAUGAAGUGAAUGAAGCAGAAGGUACAAAUG [Mat - Mod of JL D64] (puzzle: Exclusion 1) |  |  | 83.2 | apparent KD of MS2 coat protein [3]: 51.5 nM; apparent KD of MS2 coat protein [4]: 113 nM
14 | GUUAACGCAGGAUAUUAGUACAUGUACAUGAGGAUCACCCAUGUUUAUUGGGUCUAAGAAUAAGAAGGGCGAUGAA [JR_Ex5_Sub006] (Eterna round: R97, puzzle: Exclusion 5) | 402 | 631 |  | 
15 | GUUAAGUGAGGAUAUGGUGAGUAGUGCCAGAGCGCUGCUCACCAGAAGGCACAUGAGGAUCACCCAUGUAUAGC [Mat - Exclusion 4 - Mod of JL - D15] (puzzle: Exclusion 4) |  |  | 13 | 
16 | GUUAAUUGUGACAUGGGUGACAUGAGGAUCACCCAUGUCACAAGCUUUUUGCUCGUCUUAUAAUUAACCCAUGUCAC [Stov1/13-A2] (Eterna round: R97, puzzle: Sensor, turn-off variant 1) | 29.1 | 41.2 |  | 
17 | GUUAGUUAAGGAUAUACAGGGAGCCGCGGCGUCUCGCCGCAACAUGAGGAUCACCCAUGUAGAAGGUGGCCAUU [JL ViennaUCT Enbibi mod 2] (puzzle: Exclusion 2) |  |  | 101 | 

Row | Sequence | apparent KD of MS2 coat protein (input ligand: FMN 200 uM) [nM] | apparent KD of MS2 coat protein (input ligand: none) [nM] | apparent KD of MS2 coat protein [1] [nM] | other results
18 | GUUAUGUCAGGAUAUGCUAAUGAUGAGUGAUCAGACAUGAUGUAGAAGGGACAUGAGGAUCACCCAUGUAAUAU [EX4 #8] (Eterna round: R97, puzzle: Exclusion 4) | 114 | 122 |  | 
19 | GUUAUUAAUGUAGGAUAUGCAAGGCGAACCUAAGCAGAAGGACAUGAGGAUCACCCAUGUAUUGCGGUCUGCGUUCAGAUCGCU [salish99_ExNG1_r4_012] (Eterna round: R96, puzzle: Exclusion NG 1) | 39.9 | 19.4 |  | apparent KD of MS2 coat protein [2]: 15.8 nM
20 | GUUCACGUAGGAUAUACGGUUGGUGUGCGCGAAGGCCUUUGACAUGAGGAUCACCCAUGUAGAAGGACGAUGAA [EX2 C.24] (Eterna round: R97, puzzle: Exclusion 2) | 32.1 | 31 |  | 
21 | GUUCCACGAGGAUAUGAGGGCAACUACAUGAGGAUCACCCAUGUGAGCGAUCCUCAGAAGUCAGAAGGCGUGGAGA [Eternabot (L2) Solution 77] (Eterna round: R97, puzzle: Exclusion 5) | 63.7 | 70.4 |  | 
22 | GUUGGAUGAGGAUAUCGAGGUUAGUACAUGAGGAUCACCCAUGUUAUCCAGGUGUCGGUUCGAGAAGGCAUUGGAC [LRO-Ex5-14] (Eterna round: R96, puzzle: Exclusion 5) | 104 | 34.7 |  | apparent KD of MS2 coat protein [2]: 27.8 nM
23 | GUUGGAUGAGGAUAUCGAGGUUAGUACAUGAGGAUCACCCAUGUUAUCCAGGUGUCGGUUCGAGAAGGCAUUGGAC [LRO-Ex5-14] (puzzle: Exclusion 5) |  |  | 32.9 | 
24 | GUUGUCCUUGUAAGGAUAUCCGGAUAGAGCAUAUCGGAGAAGGUACAUGAGGAUCACCCAUGUCUCACCGUGCU [Eternabot (L1) Solution 95] (Eterna round: R97, puzzle: Brourd's mod of Exclusion 4) | 14.4 | 14.3 |  | 
25 | GUUUAGUGAGGAUAUGUGGCUUCGAUCGUGAGAUCGAGGCUACAGAAGGCACAUGAGGAUCACCCAUGUUCCUA [salish99_ex4_r4_107] (Eterna round: R97, puzzle: Exclusion 4) | 87.7 | 16.5 |  | 
26 | GUUUCACAUGAGGAUCACCCAUGUGAGGAUAUCAAUUUGUUAACCGUAGUUAAUAGAUUGAGAAGGCGCGUGAU [JRxlusion 2- Jieux - Exclusion 1] (Eterna round: R97, puzzle: Exclusion 1) | 64.5 | 49 |  | 
27 | GUUUCACAUGAGGAUCACCCAUGUGAGGAUAUGCAUUUGUUAACCGUAGUUAAUAGAUGCAGAAGGCGCGUGAU [JRxlusion 5 - Jieux - Exclusion 1] (Eterna round: R97, puzzle: Exclusion 1) | 69.8 | 65 |  | 
28 | GUUUGACAUGAGGAUCACCCAUGUGAGGAUAUACGAUUAGCUGCUAGGUAGUUAGUAUGUAGAAGGUGCGUGUU [EX1 #69] (Eterna round: R97, puzzle: Exclusion 1) | 97.9 | 117 |  | 
29 | GUUUUACAUGAGGAUCACCCAUGUGAGGAUAUAUUAUUAAUAGUGAUAAUUAUUGGUGGUAGAAGGCGCGUGAU [JR_Exc1_Sub012] (Eterna round: R97, puzzle: Exclusion 1) | 50.9 | 53.1 |  | 
30 | GUUUUGAGACGGAGAUCCGACAUGAGGAUCACCCAUGUCUCACAAGCUUUUUGCUCGUCUUAUACUCCUCUGUUCUC [Elimod 44 - Jieux - Sensor, turn-off variant 1] (Eterna round: R97, puzzle: Sensor, turn-off variant 1) | 17 | 17.6 |  | 
31 | UAAAACCGGUGAGGAUAUUUUUAAUAGAGCUUUAUGAUAUACAUGAGGAUCACCCAUGUUACGUUAAAGAAGGCAUCGGAAAAU [Mat - Exclusion NG 2 - Mod of JL - D99] (Eterna round: R96, puzzle: Exclusion NG 2) | 13.7 | 19.9 |  | apparent KD of MS2 coat protein [2]: 14.5 nM
32 | UAAAAGGUAGGAUAUACGAAAAAAAAGGGUAGAAAAAAAACACAUGAGGAUCACCCAUGUAGAAGGACCAAAAG [salish99_ex2_r3_048] (puzzle: Exclusion 2) |  |  | 29.8 | apparent KD of MS2 coat protein [3]: 64.3 nM; apparent KD of MS2 coat protein [4]: 30.1 nM
33 | UAAAAUUUAGGAUAUGCGUGAGAUAGAGUACGAUGAGCUGCACAUGAGGAUCACCCAUGUAGAAGGAAAUUUUA [-11, -8.6 kcal, 36% A] (Eterna round: R97, puzzle: Exclusion 2) | 58 | 31.2 |  | 
